Results taken from patent US20200338210A1 (ARDEAGEN, published 2020).
One block for each molecule: values may come before it.

Key:
human ROR1 on cell lines [1] = target: T1, human ROR1 on cell lines (human, UniProt Q01973 30-937); experiment: quantitative flow cytometry on KATO-III cells (cell only 764)
T1 construct: Jeko-1 'bearing the ROR1 antigen'); also called Receptor tyrosine kinase-like orphan receptor 1

human ROR1 on cell lines [2] = target: T1, human ROR1 on cell lines; experiment: quantitative flow cytometry on MKN-45 cells (cell only 451)
human ROR1 on cell lines [3] = target: T1, human ROR1 on cell lines; experiment: quantitative flow cytometry on KATO-III cells (cell only 1075.85)
human ROR1 on cell lines [4] = target: T1, human ROR1 on cell lines; experiment: quantitative flow cytometry on Jeko-1 cells (cell only 340.33)
human ROR1 on cell lines [5] = target: T1, human ROR1 on cell lines; experiment: quantitative flow cytometry on MDA-MD-231 cells (cell only 942.92)
human ROR1 on cell lines [6] = target: T1, human ROR1 on cell lines; experiment: quantitative flow cytometry on Daudi cells (cell only 328.77)
human ROR1 on cell lines [7] = target: T1, human ROR1 on cell lines; experiment: quantitative flow cytometry on Jeko-1 cells (cell only 237)
human ROR1 on cell lines [8] = target: T1, human ROR1 on cell lines; experiment: quantitative flow cytometry on HCCLM3 cells (cell only 1014)
human ROR1 on cell lines [9] = target: T1, human ROR1 on cell lines; experiment: quantitative flow cytometry on MKN-45 cells (cell only 641.4)
human ROR1 on cell lines [10] = target: T1, human ROR1 on cell lines; experiment: quantitative flow cytometry on HCCLM3 cells (cell only 1420.81)
human ROR1 on cell lines [11] = target: T1, human ROR1 on cell lines; experiment: quantitative flow cytometry on NCI-H226 cells (cell only 1097)
human ROR1 on cell lines [12] = target: T1, human ROR1 on cell lines; experiment: quantitative flow cytometry on Daudi cells (cell only 229)
human ROR1 on cell lines [13] = target: T1, human ROR1 on cell lines; experiment: quantitative flow cytometry on MHCC97H cells (cell only 1099.77)
human ROR1 on cell lines [14] = target: T1, human ROR1 on cell lines; experiment: quantitative flow cytometry on NCI-H226 cells (cell only 1536.32)
human ROR1 on cell lines [15] = target: T1, human ROR1 on cell lines; experiment: quantitative flow cytometry on MDA-MD-231 cells (cell only 668)
human ROR1 on cell lines [16] = target: T1, human ROR1 on cell lines; experiment: quantitative flow cytometry on NCI-H2228 cells (cell only 894.37)
human ROR1 on cell lines [17] = target: T1, human ROR1 on cell lines; experiment: quantitative flow cytometry on Namalwa cells (cell only 222)
human ROR1 on cell lines [18] = target: T1, human ROR1 on cell lines; experiment: quantitative flow cytometry on MHCC97H cells (cell only 781)
human ROR1 on cell lines [19] = target: T1, human ROR1 on cell lines; experiment: quantitative flow cytometry on Namalwa cells (cell only 319.84)
human ROR1 on cell lines [20] = target: T1, human ROR1 on cell lines; experiment: quantitative flow cytometry on NCI-H2228 cells (cell only 633)
human ROR1 on cell lines [21] = target: T1, human ROR1 on cell lines; experiment: flow cytometry on Jeko-1 cells, FITC secondary, surface signal left after 37 C, 2.5 hr T2 (secondary only 215)
Procedure: (§1) The following JeKo-1 internalization assay was used. [0179] 1. Harvest Jeko-1 cells (suspension): count and spin down required cell number for experiment in 15 ml falcon tube. Re-suspended in PBS+3% FBS in bulk and aliquoted 100 μl (500,000 cells) per tube. [0180] 2. 2 μg each ADC per tube were added from bulk dilution, incubated 4° C. (on ice) for 1 hour. [0181] 3. 3×wash in 3 ml PBS+3% FBS. Centrifuge set to 1200 RPM for 3 min spin. Carefully decanted and discarded supernatant at each step. Pulse vortexed cell pellets. Left equal volumes in tubes after final wash. [0182] 4. Placed one set of tubes at 37° C. for each Ab tested, included secondary only control set for comparison. T₀=4° C., T₁=37° C. 30 min, T₁=37+ C., […] [0183] 5. After incubation times were complete, removed tubes from incubator and keep on ice until all samples were collected. [0184] 6. Added FITC labelled secondary, incubate on ice 45 min. [0185] 7. 3×wash in 3 ml PBS+3% FBS. Centrifuge set to 1500 RPM for 5 min spin. Carefully decanted and discarded supernatant at each step. Pulse vortexed cell pellets. Left equal volumes in tubes after final wash. [0186] 8. Collected data on instrument

human ROR1 on cell lines [22] = target: T1, human ROR1 on cell lines; experiment: flow cytometry on Jeko-1 cells, FITC secondary, 4 C (on ice) T0 (secondary only 242)
Procedure: as §1

human ROR1 on cell lines [23] = target: T1, human ROR1 on cell lines; experiment: flow cytometry on Jeko-1 cells, FITC secondary, surface signal left after 37 C, 30 min T1 (secondary only 216)
Procedure: as §1

[24] = target: T2, ROR1 (target of the KD values in Table 7) (Homo sapiens (Human), UniProt Q01973 30-403, limits assumed); experiment: method not stated (Table 7); lower end of the printed range 100-400 pM
T2 sequence (Q01973 30-403 limits assumed): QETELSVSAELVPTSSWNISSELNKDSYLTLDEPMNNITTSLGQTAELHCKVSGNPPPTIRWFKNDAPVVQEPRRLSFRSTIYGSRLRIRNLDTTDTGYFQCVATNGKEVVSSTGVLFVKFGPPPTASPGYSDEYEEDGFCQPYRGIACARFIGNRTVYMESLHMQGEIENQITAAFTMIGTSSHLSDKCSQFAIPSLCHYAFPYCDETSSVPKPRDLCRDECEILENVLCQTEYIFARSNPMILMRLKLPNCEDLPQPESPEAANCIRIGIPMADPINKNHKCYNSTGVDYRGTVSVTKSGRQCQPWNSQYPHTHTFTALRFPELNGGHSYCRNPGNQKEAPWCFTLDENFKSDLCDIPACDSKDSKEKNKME

[25] = target: T2, ROR1 (target of the KD values in Table …); experiment: method not stated (Table 7); upper end of the printed range 100-400 pM

T1 sequence (Q01973 30-937 limits assumed): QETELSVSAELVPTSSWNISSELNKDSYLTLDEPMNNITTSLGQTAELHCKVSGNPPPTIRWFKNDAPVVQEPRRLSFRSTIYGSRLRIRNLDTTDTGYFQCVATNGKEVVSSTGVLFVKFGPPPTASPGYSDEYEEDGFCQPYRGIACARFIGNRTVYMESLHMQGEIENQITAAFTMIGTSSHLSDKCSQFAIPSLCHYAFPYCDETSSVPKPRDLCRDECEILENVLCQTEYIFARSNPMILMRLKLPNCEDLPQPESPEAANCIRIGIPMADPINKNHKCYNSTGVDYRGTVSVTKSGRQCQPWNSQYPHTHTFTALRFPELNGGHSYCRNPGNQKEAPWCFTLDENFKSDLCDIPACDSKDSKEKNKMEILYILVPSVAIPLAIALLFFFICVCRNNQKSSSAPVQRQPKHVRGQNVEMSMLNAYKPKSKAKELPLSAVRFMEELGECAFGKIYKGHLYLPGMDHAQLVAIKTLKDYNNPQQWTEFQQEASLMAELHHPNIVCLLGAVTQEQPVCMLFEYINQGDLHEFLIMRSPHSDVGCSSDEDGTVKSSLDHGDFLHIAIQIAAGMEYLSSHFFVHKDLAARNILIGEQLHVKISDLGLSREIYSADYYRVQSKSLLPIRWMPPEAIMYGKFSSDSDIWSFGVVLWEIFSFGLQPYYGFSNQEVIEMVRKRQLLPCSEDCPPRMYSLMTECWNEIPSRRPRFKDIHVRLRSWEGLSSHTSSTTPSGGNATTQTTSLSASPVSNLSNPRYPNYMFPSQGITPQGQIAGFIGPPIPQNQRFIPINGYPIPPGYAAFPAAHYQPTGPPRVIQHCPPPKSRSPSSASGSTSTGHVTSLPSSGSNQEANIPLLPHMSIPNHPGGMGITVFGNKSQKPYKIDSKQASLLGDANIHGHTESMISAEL

B1: 2A2-untagged (antibody, V domains shown)
VH: QVQLQQSGAELVRPGASVTLSCKASGYTFSDYEMHWVIQTPVHGLEWIGAIDPETGGTAYNQKFKGKAILTADKSSSTAYMELRSLTSEDSAVYYCTGYYDYDSFTYWGQGTLVTVSA
VL: DIVMTQSQKIMSTTVGDRVSITCKASQNVDAAVAWYQQKPGQSPKLLIYSASNRYTGVPDRFTGSGSGTDFTLTISNMQSEDLADYFCQQYDIYPYTFGGGTKLEIK
notes: also called untagged 2A2
- MFI (human ROR1 on cell lines [21]): 882
- MFI (human ROR1 on cell lines [22]): 1070
- MFI (human ROR1 on cell lines [23]): 1070

B2: 2A2-CH1 tag (antibody, V domains shown)
VH: B1 VH
VL: B1 VL
modifications: tag in CH1 (sequence and position not given)
notes: The protocol speaks of 'each ADC', so a payload may be attached; none is named; also called CH1-tagged 2A2
- MFI (human ROR1 on cell lines [21]): 786
- MFI (human ROR1 on cell lines [22]): 1100
- MFI (human ROR1 on cell lines [23]): 1050

B4: 2A2-C-Terminal tag (antibody, V domains shown)
VH: B1 VH
VL: B1 VL
modifications: C-terminal tag on the antibody (sequence not given)
notes: The protocol speaks of 'each ADC', so a payload may be attached; none is named; also called CT-tagged 2A2; C-terminal (CT)-tagged 2A2
- MFI (human ROR1 on cell lines [21]): 750
- MFI (human ROR1 on cell lines [22]): 990
- MFI (human ROR1 on cell lines [23]): 959

B5: 2A2-CH1/C-Terminal double tag (antibody, V domains shown)
VH: B1 VH
VL: B1 VL
modifications: tags in CH1 and at the C-terminus (sequences and positions not given)
notes: The protocol speaks of 'each ADC', so a payload may be attached; none is named; also called CH1/CT double-tagged 2A2
- MFI (human ROR1 on cell lines [21]): 658
- MFI (human ROR1 on cell lines [22]): 1100
- MFI (human ROR1 on cell lines [23]): 869

Continued, values first:

- Ab binding capacity/cell (human ROR1 on cell lines [1]): 760 per cell
- Ab binding capacity/cell (human ROR1 on cell lines [2]): 464 per cell
- MFI (Geom. mean of FL2) (human ROR1 on cell lines [3]): 1070
- MFI (Geom. mean of FL2) (human ROR1 on cell lines [4]): 338
- MFI (Geom. mean of FL2) (human ROR1 on cell lines [5]): 931
- MFI (Geom. mean of FL2) (human ROR1 on cell lines [6]): 327
- Ab binding capacity/cell (human ROR1 on cell lines [7]): 235 per cell
- Ab binding capacity/cell (human ROR1 on cell lines [8]): 1024 per cell
- MFI (Geom. mean of FL2) (human ROR1 on cell lines [9]): 659
- MFI (Geom. mean of FL2) (human ROR1 on cell lines [10]): 1430
- Ab binding capacity/cell (human ROR1 on cell lines [11]): 996 per cell
- Ab binding capacity/cell (human ROR1 on cell lines [12]): 227 per cell
- MFI (Geom. mean of FL2) (human ROR1 on cell lines [13]): 1070
- MFI (Geom. mean of FL2) (human ROR1 on cell lines [14]): 1400
- Ab binding capacity/cell (human ROR1 on cell lines [15]): 660 per cell
- MFI (Geom. mean of FL2) (human ROR1 on cell lines [16]): 849
- Ab binding capacity/cell (human ROR1 on cell lines [17]): 204 per cell
- Ab binding capacity/cell (human ROR1 on cell lines [18]): 757 per cell
- MFI (Geom. mean of FL2) (human ROR1 on cell lines [19]): 294
- Ab binding capacity/cell (human ROR1 on cell lines [20]): 600 per cell
Molecule: mIgG (antibody)

- Kd [24]: ≥ 0.1 nM
- Kd [25]: ≤ 0.4 nM
B3: Mouse 2A2 Antibody (antibody, mouse IgG1, kappa, V domains shown)
VH: B1 VH
VL: DIVMTQSQKIMSTTVGDRVSITCKASQNVDAAVAWYQQKPGQSPKLLIYSASNRYTGVPDRFTGSGSGTDFTLTISNMQSEDLADYFCQQYDIYPYTFGGGTKLEIKR
notes: also called m2A2; 2A2 anti-ROR1 antibodies
